No end group written: not given here.
T1: RXFP1 receptor (UniProt Q9HBX9 1-757, limits assumed)
T1 sequence (looked up): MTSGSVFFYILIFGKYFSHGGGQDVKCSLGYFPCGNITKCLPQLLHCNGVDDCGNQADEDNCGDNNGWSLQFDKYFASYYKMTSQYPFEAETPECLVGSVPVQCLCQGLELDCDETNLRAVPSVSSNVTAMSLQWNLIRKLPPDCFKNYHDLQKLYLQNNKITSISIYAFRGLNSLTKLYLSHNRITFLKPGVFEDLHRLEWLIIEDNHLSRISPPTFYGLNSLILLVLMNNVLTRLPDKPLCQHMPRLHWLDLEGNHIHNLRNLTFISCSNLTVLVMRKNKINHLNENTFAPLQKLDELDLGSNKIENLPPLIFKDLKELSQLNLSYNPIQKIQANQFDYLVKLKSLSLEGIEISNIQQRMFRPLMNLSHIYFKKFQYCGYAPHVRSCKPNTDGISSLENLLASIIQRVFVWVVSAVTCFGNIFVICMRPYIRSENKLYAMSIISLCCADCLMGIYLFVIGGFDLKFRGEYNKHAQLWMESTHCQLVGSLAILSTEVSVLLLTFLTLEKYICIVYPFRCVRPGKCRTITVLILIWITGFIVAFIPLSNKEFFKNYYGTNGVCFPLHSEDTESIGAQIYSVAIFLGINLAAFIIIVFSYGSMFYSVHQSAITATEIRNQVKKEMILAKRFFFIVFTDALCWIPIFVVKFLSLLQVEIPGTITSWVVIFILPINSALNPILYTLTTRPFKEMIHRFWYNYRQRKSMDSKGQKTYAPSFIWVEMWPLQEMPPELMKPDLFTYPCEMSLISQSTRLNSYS

T2: RXFP3 (Homo sapiens, UniProt Q9NSD7)
T2 construct: expressed in transfected cells; host or cells: CHO-K1
T2 sequence (Q9NSD7 1-469): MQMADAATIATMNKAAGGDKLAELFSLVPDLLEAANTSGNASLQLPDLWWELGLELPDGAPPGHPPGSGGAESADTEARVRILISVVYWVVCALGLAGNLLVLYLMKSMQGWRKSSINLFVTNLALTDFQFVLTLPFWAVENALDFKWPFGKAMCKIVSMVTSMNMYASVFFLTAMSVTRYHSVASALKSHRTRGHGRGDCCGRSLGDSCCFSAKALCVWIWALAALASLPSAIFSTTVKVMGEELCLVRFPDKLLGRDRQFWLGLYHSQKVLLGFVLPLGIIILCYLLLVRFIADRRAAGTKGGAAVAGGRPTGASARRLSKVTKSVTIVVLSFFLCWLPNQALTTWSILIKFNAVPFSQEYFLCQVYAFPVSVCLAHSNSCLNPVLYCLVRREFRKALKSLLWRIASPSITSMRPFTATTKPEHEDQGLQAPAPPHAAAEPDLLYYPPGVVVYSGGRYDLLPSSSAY

T3: RXFP3 receptor (UniProt Q9NSD7 1-469, limits assumed)
T3 sequence (looked up): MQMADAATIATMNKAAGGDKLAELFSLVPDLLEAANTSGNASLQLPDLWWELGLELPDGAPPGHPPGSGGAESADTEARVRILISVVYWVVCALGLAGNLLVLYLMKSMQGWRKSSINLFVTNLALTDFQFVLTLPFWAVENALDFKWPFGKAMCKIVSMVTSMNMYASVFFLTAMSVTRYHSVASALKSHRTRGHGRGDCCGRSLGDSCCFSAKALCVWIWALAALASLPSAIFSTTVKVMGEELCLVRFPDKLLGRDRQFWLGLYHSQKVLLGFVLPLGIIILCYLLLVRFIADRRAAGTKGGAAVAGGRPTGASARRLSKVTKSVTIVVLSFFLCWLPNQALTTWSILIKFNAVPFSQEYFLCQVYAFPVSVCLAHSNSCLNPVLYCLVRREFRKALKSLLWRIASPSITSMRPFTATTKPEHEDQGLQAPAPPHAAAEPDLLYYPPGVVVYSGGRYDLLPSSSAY


Key:
[1] = tested on: human dermal fibroblasts (BJ3 cells) which express RXFP1; assay: TGF-β1-induced collagen expression in human dermal fibroblasts (hydroxyproline content); type: cell-based; conditions: TGF-β1 2 ng/mL plus peptide 100 ng/mL, 72 hr
Experimental: The deposited collagen into the cell layer was hydrolysed and analysed for hydroxyproline content, as previously described (Samuel et al., 1996, Endocrinology 137:3884-3890). Hydroxyproline values were then converted to total collagen content by multiplying by a factor of 6.94 (based on hydroxyproline representing approximately 14.4% of the amino acid composition of collagen in most mammalian tissues). These experiments were performed 3-4 separate times in duplicate.

RXFP1 receptor [2] = target: T1, RXFP1 receptor; assay: cell-based or functional assay
RXFP3 = target: T2, RXFP3; assay: Inhibition of forskolin-induced cAMP accumulation in RXFP3 expressing CHO-K1 cells (cAMP reporter gene assay); type: cell-based; conditions: CHO-K1, read-out: forskolin-induced cAMP production inhibited to
Experimental: CHO-K1 cells were subcultured in clear 96 well plates (10,000 cells/well/200 μl media) and after 24 h, they were co-transfected with pCRE-8-galactosidase reporter plasmid. 24 hours later, cells were treated with 5 μM forskolin together with increasing concentration of relaxin-3 polypeptides. […] The stimulation was carried out for 6 h after which the media was aspirated and the cells were frozen at −80° C. overnight. The cells were thawed to room temperature and the amount of cAMP-induced β-galactosidase expression was measured by adding 25 μl of 0.1× buffer A (100 mM Na2HPO4 (pH 8.0), 2 mM MgSO4, 0.1 mM MnCl2) and shaking at room temperature for 10 minutes to hypotonically lyse the cells. Then 100 μl of buffer B (similar to buffer A with additional 0.5% Triton X-100 and 40 mM β-mercaptoethanol) was added to each well with shaking for 10 minutes at room temperature. Finally, 25 μl of substrate for 6-galactosidase (chlorophenol red β-D galactopyranoside) was added to each well with shaking until the colour change was observed. The absorbance was measured at 570 nm on Victor^3 plate reader (PerkinElmer, Glen Waverly, VIC). The data were analysed using GraphPad PRISM 4 (GraphPad Inc., San Diego, USA). […] Statistical analysis was carried out using one-way ANOVA with Bonferroni's multiple comparison test.

RXFP4 receptor [3] = target: T4, RXFP4 receptor (UniProt Q8TDU9 1-374, limits assumed); assay: competition with 2.5 nM Eu-labelled mouse INSL5 on CHO-K1 cells expressing RXFP4
T4 construct: whole, on cells; also called GPCR142

RXFP4 receptor [4] = target: T4, RXFP4 receptor; assay: cell-based or functional assay
RXFP1 receptor [5] = target: T1, RXFP1 receptor; assay: competition with Eu-labelled H2 relaxin on HEK-293T cells expressing RXFP1
RXFP3 receptor [6] = target: T3, RXFP3 receptor; assay: cell-based or functional assay
RXFP3 receptor [7] = target: T3, RXFP3 receptor; assay: cell-based or functional assay; remark: listed apart in the source
RXFP3 receptor [8] = target: T3, RXFP3 receptor; assay: competition with 0.5 nM Eu-labelled INSL5A/H3 relaxinB on CHO-K1 cells expressing RXFP3

T4 sequence (Q8TDU9 whole entry): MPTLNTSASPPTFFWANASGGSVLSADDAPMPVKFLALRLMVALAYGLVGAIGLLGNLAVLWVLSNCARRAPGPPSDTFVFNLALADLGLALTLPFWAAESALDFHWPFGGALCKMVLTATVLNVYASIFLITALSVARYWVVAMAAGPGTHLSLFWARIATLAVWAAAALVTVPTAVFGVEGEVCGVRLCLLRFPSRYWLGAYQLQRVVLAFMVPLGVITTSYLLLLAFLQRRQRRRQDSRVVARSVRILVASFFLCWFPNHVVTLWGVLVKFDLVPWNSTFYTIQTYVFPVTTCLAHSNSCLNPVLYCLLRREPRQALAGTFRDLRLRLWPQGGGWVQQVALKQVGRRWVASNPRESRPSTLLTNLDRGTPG

Molecule	pEC50 (M), activation of RXFP4 (RXFP4 receptor [4])	binding result (RXFP1 receptor [5])	also measured
H2 relaxin: native human relaxin-2, cognate ligand of RXFP1 (chain 1 QLYSALANKCCHVGCTKRSLARFC; chain 2 DSWMEEVIKLCGRELVRAQIAICGMSTWS)	–	–	inhibition of TGF-β1 induced collagen compared to TGF-β1 alone [1]: 35%
H2 relaxin (from UniProt P04090 162-185; P04090 25-53) (ligand)	–	–	inhibition of TGF-β1-induced collagen in human dermal fibroblasts (BJ3 cells) (RXFP1 receptor [2]): 35%
CC[C@H](C)[C@@H]1NC(=O)[C@H](Cc2ccccc2)NC(=O)[C@H](CCC(=O)O)NC(=O)[C@H](CCCNC(=N)N)NC(=O)CNC(=O)[C@@H](NC(=O)[C@H](CC(C)C)NC(=O)[C@H](CCCNC(=N)N)NC(=O)[C@@H](NC(=O)CNC(=O)[C@H](Cc2ccc(O)cc2)NC(=O)[C@@H]2CCCN2C(=O)[C@H](C)NC(=O)[C@H](C)NC(=O)[C@@H](N)CCCNC(=N)N)C(C)C)CSSC[C@@H]2NC(=O)[C@@H](NC(=O)[C@H](CO)NC(=O)[C@H](CO)NC(=O)[C@H](CO)NC(=O)[C@H](CC(C)C)NC(=O)CNC(=O)[C@H](C)NC(=O)[C@H](CC(C)C)NC(=O)[C@@H](NC(=O)[C@@H](N)CC(=O)O)C(C)C)CSSC[C@H](NC(=O)CNC(=O)[C@H](Cc3c[nH]c4ccccc34)NC(=O)[C@H](CCCCN)NC2=O)C(=O)N[C@@H](CO)C(=O)N[C@@H](CCCCN)C(=O)N[C@@H](CO)C(=O)N[C@@H](CCC(=O)O)C(=O)N[C@@H]([C@@H](C)CC)C(=O)N[C@@H](CO)C(=O)N[C@@H](CO)C(=O)N[C@@H](CC(C)C)C(=O)N[C@H](C(=O)O)CSSC[C@@H](C(=O)NCC(=O)NCC(=O)N[C@@H](CO)C(=O)N[C@@H](CCCNC(=N)N)C(=O)N[C@@H](Cc2c[nH]c3ccccc23)C(=O)O)NC(=O)[C@H]([C@@H](C)O)NC(=O)[C@H](Cc2ccccc2)NC(=O)[C@H]([C@@H](C)CC)NC(=O)[C@H](C(C)C)NC(=O)[C@H](C)NC(=O)[C@H](CCCNC(=N)N)NC1=O [H3 relaxin]	–	–	activity at 0.01 µM (RXFP3): ~50%
analogue 15 (disulfide (positions not given here), Synthetic; two inter-chain disulphides, no intra-A-chain disulphide; also called [R3A(11-24,C15→A)B]; RXFP3-selective agonist, analogue 2) chain 1: CKWGASKSEISSLC chain 2: RAAPYGVRLCGREFIRAVIFTCGGSRW	7.7 M (as -log10)	no binding (tested: <5 (pIC50/pKi, M))	pEC50, ERK1/2 phosphorylation in stable CHO-RXFP3 cells (AlphaScreen) (RXFP3 receptor [6]): 10.4 -log10 (M not printed); pIC50 (RXFP4 receptor [3]): 7.1 M (as -log10)
native human relaxin-3 (H3 relaxin) (ligand, disulfide (positions not given here); also: one intra-A-chain and two inter-chain disulphide bonds, places not given here, Two-chain peptide; one intra-A-chain and two inter-chain disulphide bonds; also called native relaxin-3) chain 1: DVLAGLSSSCCKWGCSKSEISSLC chain 2: RAAPYGVRLCGREFIRAVIFTCGGSRW	8.94 M (as -log10)	–	pEC50 (M), cAMP accumulation in HEK-293 cells expressing RXFP1 (RXFP1 receptor [2]): 8.74 M (as -log10)
analogue 14 (disulfide (positions not given here), Synthetic; no intra-A-chain disulphide, two inter-chain disulphides kept) chain 1: DVLAGLSSSACKWGASKSEISSLC chain 2: RAAPYGVRLCGREFIRAVIFTCGGSRW	–	–	pEC50 (M), inhibition of forskolin-induced cAMP, reporter gene assay in CHO-K1 cells expressing RXFP3 (RXFP3 receptor [7]): 7.9 M (as -log10); pEC50 (M), cAMP accumulation in HEK-293 cells expressing RXFP1 (RXFP1 receptor [2]): 6.23 M (as -log10); pKi (RXFP3 receptor [8]): 7.3 M (as -log10)

Further lines, with some results ahead:

pEC50 (M), activation of RXFP4 (RXFP4 receptor [4])	binding result (RXFP1 receptor [5])	Molecule	also measured
8.51 M (as -log10)	–	human INSL5 (ligand, mature; Native receptor ligand used as comparator at RXFP4; also called hINSL5; native INSL5) chain 1: QDLQTLCCTDGCSMTDLSALC chain 2: KESVRLCGLEYIRTVIYICASSRW	pIC50 (RXFP4 receptor [3]): 7.33 M (as -log10)
7.85 M (as -log10)	no binding (tested: <5 (pIC50/pKi, M))	analogue 17 (Synthetic) chain 1: CKWGASKSEISSLC chain 2: GVRLCGREFIRAVIFTCGGSRW	–
8.1 M (as -log10)	no binding (tested: <5 (pIC50/pKi, M))	analogue 18 (Synthetic) chain 1: CKWGASKSEISSLC chain 2: RLCGREFIRAVIFTCGGSRW	–
8.46 M (as -log10)	no binding (tested: <5 (pIC50/pKi, M))	analogue 19 (Synthetic) chain 1: CKWGASKSEISSLC chain 2: CGREFIRAVIFTCGGSRW	–
